# According to US20060183887A1 (Amgen, published 2006):
# Changes are numbered by the printed parent chain.
# B1: antibody secreted by the hybridoma E2.11 (antibody, human IgG2, V domains shown)
# VH: VSGGSVSSGDYYWSWIRQPPGKGLEWIGHLYYSGNTNYNPSLKSRVTISLDTSKNQFSLKLSSVTAADTAVYYCARDFLTGSFFDYWGQGTLVTVSS
# VL: TITCQASQDISNYLNWYQQKPGKAPKLLINDASDLETGVPSRISGSGSGTDFTFTISNLQPEDIATYYCQQYDSLPLTFGGGTKVEIRR
# notes: Fully human IgG2 with a kappa light chain
# B2: antibody secreted by the hybridoma E7.6.3 (antibody, human IgG2, V domains shown)
# VH: VSGGSVSSGDYYWTWIRQSPGKGLEWIGHIYYSGNTNYNPSLKSRLTISIDTSKTQFSLKLSSVTAADTAIYYCVRDRVTGAFDIWGQGTMVTSS
# VL: B1 VL with N30Y, D34N, I43F, N58S, Y68F, Q71H, Y72F, S74H, T78A, R88K
# notes: Fully human IgG2 with a kappa light chain; also called E7.6.3 MAb
# B3: antibody secreted by the hybridoma E1.1 (antibody, human IgG2, V domains shown)
# VH: VSGGSINSGDYYWSWIRQHPGKGLDCIGYIYYSGSTYYNPSLKSRVTISVDTSKNQFFLKLTSVTAADTAVYYCARSTVVNPGWFDPWGQGTLVTVSS
# VL: B1 VL with S11N, Y17F, L27V, N30H, D34N, V39G, I43F, N58G, D73E, R88K
# notes: as for B1
# B4: antibody secreted by the hybridoma E2.4 (antibody, human IgG2, V domains shown)
# VH: VSGGSINSGDYYWSWIRQHPGKGLEWIGSIYYSGNTFYNPSLKSRVTISLDTSKNQFSLKLSSVTAADTAVCYCARNIVTTGAFDIWGQGTMVTVSS
# VL: B1 VL with S11T, N12I, D34S, S41L, I43F, N58S, S74H, E86A, R88K
# notes: as for B1
# Key:
# [1] = molecular target: T1, soluble EGF-r purified from A431 cell membranes (Sigma, E-3641) (human, UniProt P00533 25-1210, limits assumed); test: BIAcore, solid phase, antigen immobilized at 228 RU
# T1 construct: The BIAcore methods say that either this protein or the recombinant extracellular domain of EGFr was immobilized; also called purified A431 cell membrane-derived EGFr protein
# Experimental: Determination of affinity constants of fully human Mabs by BIAcore: Affinity measurement of purified human monoclonal antibodies, Fab fragments, or hybridoma supernatants by plasmon resonance was carried out using the BIAcore 2000 instrument, using general procedures outlined by the manufacturers.
# Based upon the general procedures outlined by the manufacture, kinetic analyses of the antibodies were performed using antigens immobilized onto the sensor surface at a low density. […] The dissociation (kd or koff) and association (ka or kₒₙ) rates were determined using the software provided by the manufacturer (BIA evaluation 2.1).
# [2] = molecular target: T2, human epidermal growth factor receptor (EGF-r) on the surface of human carcinoma cells (A431, SW948, … (human, UniProt P00533 25-1210)); test: inhibition of 125I-EGF binding to A431 cells (FIG. 36)
# T2 construct: whole, on cells; also called surface expressed EGF-r
# [3] = molecular target: T1, soluble EGF-r purified from A431 cell …; test: in solution by ELISA, Scatchard analysis
# Experimental: After incubation, 70 μl of each mixture was transferred into the wells of 96-well microtiter plates previously coated with the same monoclonal antibody (100 μl/well, at 2 μg/ml in coating buffer) and incubated for 15 min at room temperature.
# [4] = molecular target: T2, human epidermal growth factor receptor …; test: inhibition of [125I]EGF (0.1 nM) binding to A431 cells
# Text: The plates were washed five times, air-dried and counted in a scintillation counter.
# [5] = molecular target: T2, human epidermal growth factor receptor …; test: inhibition of [125I]EGF binding to SW948 cells
# [6] = molecular target: T1, soluble EGF-r purified from A431 cell …; test: solid phase (BIAcore) and solution measurements
# [7] = molecular target: T1, soluble EGF-r purified from A431 cell …; test: BIAcore, solid phase, antigen immobilized at 818 RU
binder,measurement,setting,value
B1,Kd,[1],0.16 nM
same,koff,[1],0.0003 s⁻¹
same,kon,[1],1.9e+06 M⁻¹ s⁻¹
same,concentration at which inhibition of EGF binding begins,[2],~8 nM
same,Kd,[3],0.11 nM
B2,IC50,[4],3 nM
same,IC50,[5],0.9 nM
same,Kd,[6],0.05 nM
B3,concentration at which inhibition of EGF binding begins,[2],~8 nM
same,Kd,[3],0.11 nM
B4,Kd,[7],0.035 nM
same,koff,[7],9.78e-05 s⁻¹
same,kon,[7],2.8e+06 M⁻¹ s⁻¹
same,concentration at which inhibition of EGF binding begins,[2],~8 nM
same,Kd,[3],0.11 nM
